The Human Domainome abundance scans (Beltran et al. 2025)
± gives the uncertainty stated by the source.

B1: Tyrosine-protein kinase BTK, residues 215 to 273; numbered along this chain, Q06187 (parent)
chain: ELKKVVALYDYMPMNANDLQLRKGDEYFILEESNLPWWRARDKNGQEGYIPSNYVTEAE

Variants of: B1
Test: abundance fitness (aPCA) (normalised: wild type 0, dead -1); higher = more abundant; growth selection in yeast, the domain comes from the species named
Conditions: Homo sapiens

Abundance fitness, by site and new letter:
P13: D -0.458 ± 0.095 | A -0.082 ± 0.046 | I -0.193 ± 0.16 | Q -0.296 ± 0.076 | H -0.51 ± 0.11 | R -0.153 ± 0.036 | S -0.081 ± 0.041 | C -0.235 ± 0.056 | F -1.08 ± 0.27 | G -0.068 ± 0.041 | Y -0.774 ± 0.1 | W -0.778 ± 0.073 | K -0.119 ± 0.066 | N -0.275 ± 0.1 | E -0.343 ± 0.06 | L -0.734 ± 0.048 | M -0.406 ± 0.077
N17: L -0.019 ± 0.031 | Q 0.033 ± 0.044 | C -0.01 ± 0.056 | E -0.024 ± 0.043 | H 0.03 ± 0.068 | Y -0.088 ± 0.056 | R -0.001 ± 0.033 | V -0.068 ± 0.031 | T 0.002 ± 0.051 | S -0.002 ± 0.035 | M -0.017 ± 0.05 | D -0.011 ± 0.067 | K -0.052 ± 0.058 | P -0.123 ± 0.045 | I -0.187 ± 0.075 | F -0.029 ± 0.056 | A -0.041 ± 0.035 | W -0.115 ± 0.034
D18: F -0.04 ± 0.067 | I -0.033 ± 0.077 | L -0.073 ± 0.032 | R 0.004 ± 0.031 | H 0.146 ± 0.065 | W -0.07 ± 0.033 | N 0.009 ± 0.057 | K -0.048 ± 0.044 | P -0.469 ± 0.051 | A -0.017 ± 0.041 | V -0.061 ± 0.038 | E 0.05 ± 0.039 | T -0.034 ± 0.043 | G -0.038 ± 0.037 | S -0.051 ± 0.036 | Y 0.025 ± 0.051 | Q 0.018 ± 0.043
L19: Q -0.711 ± 0.059 | A -0.796 ± 0.056 | Y -0.66 ± 0.059 | G -0.851 ± 0.045 | P -0.515 ± 0.055 | D -0.936 ± 0.086 | I -0.124 ± 0.067 | C -0.444 ± 0.058 | S -0.695 ± 0.042 | V -0.314 ± 0.034 | F -0.391 ± 0.067 | M -0.105 ± 0.041 | E -0.888 ± 0.081 | T -0.75 ± 0.046 | N -0.701 ± 0.1 | H -0.703 ± 0.093 | R -0.792 ± 0.042
F28: W 0.032 ± 0.049 | Y -0.068 ± 0.063 | D -0.018 ± 0.064 | I -0.021 ± 0.052 | V -0.009 ± 0.035 | Q -0.069 ± 0.079 | P -0.631 ± 0.1 | H -0.07 ± 0.13 | A -0.055 ± 0.041 | C -0.096 ± 0.055 | S -0.019 ± 0.039 | E 0.002 ± 0.055 | M 0.017 ± 0.054 | T -0.02 ± 0.045 | R -0.012 ± 0.047 | K -0.141 ± 0.06 | G -0.049 ± 0.041 | N -0.077 ± 0.069 | L -0.004 ± 0.038
M14: S -0.001 ± 0.031 | K -0.007 ± 0.059 | P -0.002 ± 0.049 | R 0.051 ± 0.035 | A 0.051 ± 0.039 | H 0.068 ± 0.1 | T -0.028 ± 0.04 | W -0.129 ± 0.042 | L -0.018 ± 0.03 | C -0.08 ± 0.059 | N 0.059 ± 0.062 | V 0.026 ± 0.032 | Y -0.15 ± 0.12 | D -0.013 ± 0.076 | Q 0.038 ± 0.064 | F 0.022 ± 0.044 | G 0.02 ± 0.035 | I -0.049 ± 0.049
D25: S -0.071 ± 0.035 | A -0.046 ± 0.036 | E 0.019 ± 0.043 | L -0.061 ± 0.036 | M -0.005 ± 0.041 | P -1.15 ± 0.15 | R -0.068 ± 0.033 | H -0.01 ± 0.048 | G -0.073 ± 0.037 | Q -0.013 ± 0.049 | Y -0.101 ± 0.059 | K -0.067 ± 0.045 | N -0.074 ± 0.057 | F -0.107 ± 0.063
R22: S -0.003 ± 0.035 | P -0.768 ± 0.086 | I -0.026 ± 0.067 | N -0.012 ± 0.079 | T -0.037 ± 0.053 | A -0.032 ± 0.038 | E -0.041 ± 0.054 | L -0.002 ± 0.034 | G -0.257 ± 0.033 | F -0.036 ± 0.062 | C -0.004 ± 0.049 | V 0.031 ± 0.033 | W -0.099 ± 0.037 | Y 0 ± 0.07 | H -0.08 ± 0.058 | K 0.049 ± 0.047 | Q -0.011 ± 0.05
A16: F -0.18 ± 0.053 | V -0.046 ± 0.03 | H -0.026 ± 0.074 | E 0.013 ± 0.042 | L -0.083 ± 0.027 | T -0.031 ± 0.039 | Q 0.016 ± 0.04 | I -0.229 ± 0.058 | W -0.105 ± 0.037 | C -0.063 ± 0.054 | P -0.093 ± 0.043 | K -0.068 ± 0.044 | D 0.044 ± 0.051 | M -0.141 ± 0.042 | N -0.045 ± 0.055 | R -0.055 ± 0.028 | S -0.042 ± 0.031 | Y -0.17 ± 0.06
I29: Y -1.02 ± 0.13 | A -0.194 ± 0.046 | H -0.99 ± 0.2 | Q -0.624 ± 0.07 | K -0.241 ± 0.054 | N -0.698 ± 0.1 | E -0.58 ± 0.057 | D -0.704 ± 0.11 | T -0.212 ± 0.056 | V -0.002 ± 0.038 | M -0.229 ± 0.043 | F -0.799 ± 0.11 | G -0.847 ± 0.059 | L -0.008 ± 0.03 | P -0.483 ± 0.05 | S -0.544 ± 0.045 | W -0.855 ± 0.067 | R -0.436 ± 0.037
L21: V -0.079 ± 0.035 | P -0.724 ± 0.082 | H -0.761 ± 0.19 | E -0.793 ± 0.085 | N -0.806 ± 0.22 | C -0.349 ± 0.068 | G -1.06 ± 0.073 | M -0.079 ± 0.05 | Q -0.754 ± 0.09 | S -0.811 ± 0.057 | T -0.523 ± 0.049 | W -1.09 ± 0.11 | A -0.671 ± 0.057 | K -0.892 ± 0.12 | D -1.05 ± 0.16 | F -1.01 ± 0.12 | R -0.998 ± 0.069 | Y -1.09 ± 0.12
E26: I -0.013 ± 0.051 | A -0.075 ± 0.046 | H -0.134 ± 0.099 | D -0.061 ± 0.078 | F -0.024 ± 0.054 | N -0.098 ± 0.05 | Y -0.082 ± 0.058 | S 0 ± 0.037 | R -0.068 ± 0.038 | V -0.032 ± 0.041 | W -0.037 ± 0.047 | G -0.191 ± 0.042 | Q -0.079 ± 0.061 | L -0.01 ± 0.036 | T 0.011 ± 0.052 | C -0.084 ± 0.061 | K -0.01 ± 0.056 | P -0.041 ± 0.051
Q20: Y -0.037 ± 0.066 | C -0.06 ± 0.059 | I -0.084 ± 0.055 | P -0.037 ± 0.044 | S -0.007 ± 0.042 | R -0.013 ± 0.045 | F -0.2 ± 0.055 | E -0.001 ± 0.059 | M -0.073 ± 0.058 | L -0.055 ± 0.038 | A -0.007 ± 0.04 | T -0.043 ± 0.05 | D -0.168 ± 0.077 | N -0.152 ± 0.065 | V -0.082 ± 0.034 | W -0.131 ± 0.066 | G -0.001 ± 0.045 | K -0.075 ± 0.075 | H -0.075 ± 0.08
E31: M 0.026 ± 0.048 | A -0.008 ± 0.052 | N -0.058 ± 0.058 | F -0.005 ± 0.047 | G -0.051 ± 0.036 | H -0.054 ± 0.062 | C -0.034 ± 0.048 | I -0.117 ± 0.054 | L -0.122 ± 0.033 | D -0.058 ± 0.078
K23: T -0.112 ± 0.061 | W -0.372 ± 0.033 | I -0.207 ± 0.13 | V -0.072 ± 0.038 | R -0.056 ± 0.03 | H -0.019 ± 0.087 | C -0.037 ± 0.061 | M -0.169 ± 0.046 | P -0.371 ± 0.05 | Q -0.077 ± 0.046 | A -0.024 ± 0.049 | L -0.181 ± 0.033 | D -0.522 ± 0.17 | G -0.143 ± 0.034 | E -0.058 ± 0.046
N15: T 0.089 ± 0.042 | V 0.052 ± 0.026 | W -0.14 ± 0.04 | M -0.03 ± 0.037 | F -0.176 ± 0.045 | R 0.026 ± 0.03 | G 0.065 ± 0.031 | H -0.048 ± 0.069 | D -0.018 ± 0.049 | S 0.059 ± 0.032 | I -0.079 ± 0.054 | A -0.077 ± 0.034 | P -0.442 ± 0.044 | Y -0.23 ± 0.062 | E -0.011 ± 0.037 | L 0.004 ± 0.03
M12: W -0.07 ± 0.039 | R -0.002 ± 0.029 | T 0.016 ± 0.051 | Q -0.009 ± 0.055 | K 0.065 ± 0.051 | S 0.007 ± 0.037 | L 0.016 ± 0.032 | V -0.022 ± 0.039 | N -0.007 ± 0.067 | P -0.008 ± 0.048 | Y -0.018 ± 0.069
Y27: P -0.624 ± 0.07 | N -0.537 ± 0.1 | W -0.96 ± 0.08 | L -0.053 ± 0.03 | A -0.339 ± 0.049 | H -0.754 ± 0.12 | D -0.692 ± 0.11 | K -0.771 ± 0.062 | E -0.646 ± 0.064 | T -0.698 ± 0.057 | M -0.362 ± 0.051 | C -0.299 ± 0.065 | I -0.054 ± 0.073 | S -0.69 ± 0.052 | R -0.772 ± 0.05 | G -0.745 ± 0.056 | V -0.022 ± 0.04 | F -0.157 ± 0.052
G24: I -0.799 ± 0.11 | K -0.302 ± 0.065 | L -0.382 ± 0.035 | P -0.748 ± 0.092 | T -0.395 ± 0.053 | N -0.096 ± 0.093 | V -0.987 ± 0.056 | D -0.09 ± 0.052 | S -0.226 ± 0.04 | A -0.252 ± 0.039 | Y -0.193 ± 0.062 | E -0.276 ± 0.048 | F -0.156 ± 0.058 | Q -0.302 ± 0.048 | H -0.178 ± 0.11 | C -0.472 ± 0.087 | M -0.223 ± 0.045 | W -0.34 ± 0.057
L30: D -0.397 ± 0.12 | C -0.207 ± 0.061 | N -0.346 ± 0.08 | M -0.087 ± 0.052 | E -0.104 ± 0.055 | P -0.365 ± 0.052 | S -0.175 ± 0.038 | V -0.015 ± 0.047 | R -0.223 ± 0.031 | T -0.03 ± 0.053 | I -0.026 ± 0.056 | Q -0.159 ± 0.052 | G -0.398 ± 0.046 | F -0.038 ± 0.061 | K -0.076 ± 0.044 | Y -0.056 ± 0.061 | A -0.12 ± 0.05 | W -0.147 ± 0.036
